From patent EP4578463A1, “ENDO-180 TARGETED ANTIBODY-DRUG CONJUGATES” (Oncomatryx Biopharma, S.L., priority 2023, dated 2025)

How the values were obtained:
[1] = biological target: T1, human Endo180-His (aa: 31-513; comprising the first four N-terminal domains) (human, UniProt Q9UBG0 31-513); test: ELISA, immobilized human Endo180-His
T1 construct: In-house produced; also called huEndo; human Endo180-His molecule; not shown: His tag
T1 sequence: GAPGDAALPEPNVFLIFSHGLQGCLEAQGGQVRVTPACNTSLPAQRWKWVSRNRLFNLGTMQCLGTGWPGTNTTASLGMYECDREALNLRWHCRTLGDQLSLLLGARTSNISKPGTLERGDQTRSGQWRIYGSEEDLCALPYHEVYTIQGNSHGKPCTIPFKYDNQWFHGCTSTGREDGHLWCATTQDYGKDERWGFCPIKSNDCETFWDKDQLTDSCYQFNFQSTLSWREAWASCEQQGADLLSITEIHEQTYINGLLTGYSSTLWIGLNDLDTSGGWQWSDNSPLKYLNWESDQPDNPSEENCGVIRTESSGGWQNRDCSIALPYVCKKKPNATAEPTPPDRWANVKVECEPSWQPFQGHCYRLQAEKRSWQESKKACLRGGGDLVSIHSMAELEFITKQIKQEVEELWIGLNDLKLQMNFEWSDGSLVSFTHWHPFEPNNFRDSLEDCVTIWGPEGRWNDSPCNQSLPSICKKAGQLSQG

[2] = biological target: T2, human Endo180-moFc domains I-IV (aa 31-513) (human, UniProt Q9UBG0 31-513); test: ELISA, immobilized huEndo180-moFc
T2 construct: also called huEndo180 (DI-IV); huEndo180-moFc DI-IV; not shown: murine Fc domain
T2 sequence: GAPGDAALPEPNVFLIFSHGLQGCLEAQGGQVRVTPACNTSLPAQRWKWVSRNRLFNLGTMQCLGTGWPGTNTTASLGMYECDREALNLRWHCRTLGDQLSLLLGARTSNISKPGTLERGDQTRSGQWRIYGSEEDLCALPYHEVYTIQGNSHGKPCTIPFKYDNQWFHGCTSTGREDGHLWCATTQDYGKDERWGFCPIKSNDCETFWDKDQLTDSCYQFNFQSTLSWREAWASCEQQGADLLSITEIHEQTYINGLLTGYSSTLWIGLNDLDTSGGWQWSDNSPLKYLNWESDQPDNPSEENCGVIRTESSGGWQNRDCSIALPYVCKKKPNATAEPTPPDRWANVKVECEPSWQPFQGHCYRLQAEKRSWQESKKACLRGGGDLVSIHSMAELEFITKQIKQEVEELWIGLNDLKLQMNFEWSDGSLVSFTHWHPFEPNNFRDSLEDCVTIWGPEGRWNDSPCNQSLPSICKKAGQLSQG

[3] = biological target: T3, human Endo180-moFc domains I-III (aa 31-370) (human, UniProt Q9UBG0 31-370); test: ELISA, immobilized huEndo180-moFc
T3 construct: also called huEndo180 (DI-III); huEndo180-moFc DI-III; not shown: murine Fc domain
T3 sequence: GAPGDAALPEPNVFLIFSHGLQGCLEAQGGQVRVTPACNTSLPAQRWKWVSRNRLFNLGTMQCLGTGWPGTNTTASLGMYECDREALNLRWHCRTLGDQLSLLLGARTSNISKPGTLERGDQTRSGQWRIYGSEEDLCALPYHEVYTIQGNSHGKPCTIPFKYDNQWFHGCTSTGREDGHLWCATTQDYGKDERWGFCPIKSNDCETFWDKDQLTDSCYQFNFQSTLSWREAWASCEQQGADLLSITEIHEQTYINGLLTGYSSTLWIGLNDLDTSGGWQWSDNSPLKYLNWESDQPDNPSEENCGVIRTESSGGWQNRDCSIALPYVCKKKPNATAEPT

[4] = biological target: T4, Endo180 on cells (Endo180-expressing HT1080-WT cells; Endo180-transfected HEK293-Endo180 cells) (UniProt Q9UBG0 31-1479); test: flow cytometry on HT1080-WT cells
T4 construct: whole, on cells; One molecule is used for the endogenous protein on HT1080-WT and the transfected protein on HEK293-Endo180; also called uPARAP
T4 sequence (looked up): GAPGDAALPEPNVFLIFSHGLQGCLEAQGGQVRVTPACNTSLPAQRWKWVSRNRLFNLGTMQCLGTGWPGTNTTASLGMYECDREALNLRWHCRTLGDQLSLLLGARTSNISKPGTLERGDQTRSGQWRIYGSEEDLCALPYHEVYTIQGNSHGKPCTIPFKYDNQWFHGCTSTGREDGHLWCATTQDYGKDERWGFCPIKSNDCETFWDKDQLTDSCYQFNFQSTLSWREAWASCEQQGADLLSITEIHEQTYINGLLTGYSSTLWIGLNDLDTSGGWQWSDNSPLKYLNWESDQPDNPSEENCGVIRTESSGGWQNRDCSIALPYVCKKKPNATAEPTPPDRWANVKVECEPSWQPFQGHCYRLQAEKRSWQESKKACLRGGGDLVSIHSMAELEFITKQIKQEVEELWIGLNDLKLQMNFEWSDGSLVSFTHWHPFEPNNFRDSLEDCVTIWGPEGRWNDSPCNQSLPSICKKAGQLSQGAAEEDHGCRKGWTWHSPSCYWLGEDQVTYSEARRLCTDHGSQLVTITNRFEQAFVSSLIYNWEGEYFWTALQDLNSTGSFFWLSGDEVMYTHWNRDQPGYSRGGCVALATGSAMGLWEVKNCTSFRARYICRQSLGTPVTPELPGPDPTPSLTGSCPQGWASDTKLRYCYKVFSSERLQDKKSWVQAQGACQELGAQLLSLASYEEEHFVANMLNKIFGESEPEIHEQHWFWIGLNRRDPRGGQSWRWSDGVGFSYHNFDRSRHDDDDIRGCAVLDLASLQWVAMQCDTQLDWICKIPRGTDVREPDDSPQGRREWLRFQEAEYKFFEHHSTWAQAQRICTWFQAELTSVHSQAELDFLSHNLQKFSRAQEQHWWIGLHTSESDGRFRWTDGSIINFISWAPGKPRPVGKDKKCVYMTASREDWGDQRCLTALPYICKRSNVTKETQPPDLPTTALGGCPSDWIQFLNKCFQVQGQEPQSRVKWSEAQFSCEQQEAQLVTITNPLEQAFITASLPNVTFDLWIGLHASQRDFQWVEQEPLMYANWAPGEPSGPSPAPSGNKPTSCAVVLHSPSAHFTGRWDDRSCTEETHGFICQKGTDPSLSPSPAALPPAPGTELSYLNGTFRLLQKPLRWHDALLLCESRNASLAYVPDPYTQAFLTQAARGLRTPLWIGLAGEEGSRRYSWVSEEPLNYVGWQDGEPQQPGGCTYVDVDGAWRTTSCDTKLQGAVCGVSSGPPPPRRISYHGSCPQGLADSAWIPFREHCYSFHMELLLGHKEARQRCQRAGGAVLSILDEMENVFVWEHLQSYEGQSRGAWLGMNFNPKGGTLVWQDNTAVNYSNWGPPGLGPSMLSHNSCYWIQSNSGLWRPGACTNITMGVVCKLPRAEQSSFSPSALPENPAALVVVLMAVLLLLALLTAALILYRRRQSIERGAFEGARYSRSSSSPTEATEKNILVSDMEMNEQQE

- EC50 [1]: 4.7 nM
- EC50 [2]: 0.4 nM
- EC50 [3]: 0.5 nM
- EC50 [4]: 0.4 nM
B1: Human IgG1 G7V with a wildtype γ1 heavy chain (antibody, V domains shown)
VH: EVQLVESGGGLVKPGGSLRLSCAASGFTFSSYSMNWVRQAPGKGLEWVANIKPDGSERHSVDSVKGRFTISRDNSKNSLYLQMNSLRAEDTAVYYCARPGAGRLDYWGQGTLVTVSS
VL: SSELTQDPAVSVALGQTVRITCQGDSLRSYYASWYQQKPGQAPVLVVYGKNNRPSGIPDRFSGSSSGNTASLTITGAQAEDEADYYCNSRDSSGNPWAFGGGTKVTVLG
notes: Naked antibody, made in HEK293-6E (lab scale) or CHO (1 L scale); also called IgG G7V; OMTX007-G7V
